Measured values published in patent US20090252729A1.

How the values were obtained:
[1] = target: human FcRIII-GST (CD16a, V158) (human) (UniProt P08637); assay: Alphascreen assay, human FcγR CD16a
[2] = target: cynomolgus FcγR III (CD16a) (cynomolgus) (UniProt Q8SPW2); assay: Alphascreen assay, cynomolgus FcγR CD16a
[3] = target: cynomolgus FcγR IIa (CD32a) (cynomolgus); assay: Alphascreen assay, cynomolgus FcγR CD32a (R)

human FcRIII-GST (CD16a, V158) (human), sequence (P08637 17-208 F176V limits assumed): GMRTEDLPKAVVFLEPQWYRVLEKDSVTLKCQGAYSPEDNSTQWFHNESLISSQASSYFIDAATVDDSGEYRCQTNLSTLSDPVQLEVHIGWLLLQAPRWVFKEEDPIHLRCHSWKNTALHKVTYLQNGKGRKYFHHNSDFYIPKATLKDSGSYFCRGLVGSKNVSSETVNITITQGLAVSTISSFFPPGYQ
cynomolgus FcγR III (CD16a) (cynomolgus), sequence (Q8SPW2 17-208 limits assumed): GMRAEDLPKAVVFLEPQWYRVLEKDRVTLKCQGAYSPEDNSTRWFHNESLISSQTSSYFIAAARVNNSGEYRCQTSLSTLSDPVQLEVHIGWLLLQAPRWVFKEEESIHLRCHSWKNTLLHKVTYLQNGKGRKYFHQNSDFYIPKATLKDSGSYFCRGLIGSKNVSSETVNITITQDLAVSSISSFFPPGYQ

Agly 5c8 IgG1 (antibody)
EC50 [1]: 1.84 µM
EC50 [2]: 2.31 µM
EC50 [3]: 1.17 µM
